The target of assay [1] is human TIGIT stably expressed on cells (Jurkat; 293T) (human) (UniProt Q495A1). In words: cell-based or functional assay.
For assay [2] the target is unchanged. Nature of the assay: whole cell binding, flow cytometry, n=3.
Assay [3] deals with recombinant cynomolgus TIGIT (cyno-TIGIT ECD) (cynomolgus monkey). In words: ELISA on recombinant cyno-TIGIT.
Assay [4] deals with recombinant human TIGIT extra cellular domain (ECD) protein (human) (UniProt Q495A1). In words: ELISA on recombinant human TIGIT ECD.
In assay [5] the target is human TIGIT stably expressed on cells (Jurkat; 293T) (human) (UniProt Q495A1). Nature of the assay: flow cytometry (CytoFlex), whole cell binding on h-TIGIT cells; representative of three experiments.
In assay [6] the target is recombinant mouse-TIGIT (mouse) (UniProt P86176). Nature of the assay: ELISA on recombinant mouse-TIGIT.

The record followed here is patent publication US20230037911A1.

Chain of human TIGIT stably expressed on cells (Jurkat; 293T) (human) (Q495A1 22-244 limits assumed): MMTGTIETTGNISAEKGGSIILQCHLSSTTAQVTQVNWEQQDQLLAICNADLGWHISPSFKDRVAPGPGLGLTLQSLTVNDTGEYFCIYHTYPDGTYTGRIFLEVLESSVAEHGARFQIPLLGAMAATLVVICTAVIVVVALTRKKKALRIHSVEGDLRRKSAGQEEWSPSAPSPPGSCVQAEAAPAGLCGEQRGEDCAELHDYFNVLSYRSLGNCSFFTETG
Chain of recombinant mouse-TIGIT (mouse) (P86176 29-148 limits assumed): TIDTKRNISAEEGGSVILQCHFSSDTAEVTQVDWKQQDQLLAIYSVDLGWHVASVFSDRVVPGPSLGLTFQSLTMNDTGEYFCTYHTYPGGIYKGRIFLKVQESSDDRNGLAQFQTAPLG
Chain of recombinant human TIGIT extra cellular domain (ECD) protein (human) (Q495A1 22-138 limits assumed): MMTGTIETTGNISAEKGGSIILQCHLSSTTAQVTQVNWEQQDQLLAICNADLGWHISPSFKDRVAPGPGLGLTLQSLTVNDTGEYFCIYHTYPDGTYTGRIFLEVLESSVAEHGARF
Chain of recombinant cynomolgus TIGIT (cyno-TIGIT ECD) (cynomolgus monkey) (chain, as listed by the source): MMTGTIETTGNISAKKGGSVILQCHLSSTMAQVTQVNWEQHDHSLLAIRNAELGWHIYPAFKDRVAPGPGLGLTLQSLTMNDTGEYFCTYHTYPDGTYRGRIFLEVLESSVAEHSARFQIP

“Reference Ab 2 (reference anti-human-TIGIT antibody with the amino acid sequences of Tiragolumab, U.S. 2017/0088613 A1)” registered an EC50, TIGIT blockade NFAT luciferase reporter assay in assay [1] of 0.72 nM. This substance also returned a 50% effective concentration (EC50) in assay [2] of 0.61 nM. Also, the EC50 (read off the curve) came to 0.1 µg/mL in assay [3], 0.1 µg/mL in assay [4] and 0.5 nM in assay [5].

For the substance “anti-mouse TIGIT reference antibody (Biolegend #142101)”, the EC50 (read off the curve) in assay [6] amounted to 0.08 µg/mL.
